{"source": "paper PMC9976900", "key": {"Unr CSD789 wild type [1]": {"molecular_target": "T1, Unr CSD789 wild type (Drosophila, UniProt B7Z0E2 756-990)", "T1 sequence": "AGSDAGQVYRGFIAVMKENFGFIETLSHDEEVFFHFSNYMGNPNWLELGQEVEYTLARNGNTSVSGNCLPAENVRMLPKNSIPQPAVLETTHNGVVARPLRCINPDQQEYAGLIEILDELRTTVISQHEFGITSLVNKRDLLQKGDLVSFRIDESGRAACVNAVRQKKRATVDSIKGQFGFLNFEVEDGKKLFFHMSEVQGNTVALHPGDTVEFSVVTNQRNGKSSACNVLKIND", "experiment": "ITC"}, "Unr CSD789 Q868A": {"molecular_target": "T2, Unr CSD789 Q868A (Drosophila, UniProt B7Z0E2 756-990, Q898A)", "T2 sequence": "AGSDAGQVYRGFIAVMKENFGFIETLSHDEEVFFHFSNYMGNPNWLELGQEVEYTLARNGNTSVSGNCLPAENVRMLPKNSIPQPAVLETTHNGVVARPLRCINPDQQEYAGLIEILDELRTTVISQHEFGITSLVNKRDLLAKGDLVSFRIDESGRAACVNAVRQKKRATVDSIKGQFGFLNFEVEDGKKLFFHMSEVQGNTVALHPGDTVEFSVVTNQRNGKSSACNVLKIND", "experiment": "fluorescence polarization"}, "Unr CSD789 E786A": {"molecular_target": "T3, Unr CSD789 E786A (Drosophila, UniProt B7Z0E2 756-990, E786A)", "T3 sequence": "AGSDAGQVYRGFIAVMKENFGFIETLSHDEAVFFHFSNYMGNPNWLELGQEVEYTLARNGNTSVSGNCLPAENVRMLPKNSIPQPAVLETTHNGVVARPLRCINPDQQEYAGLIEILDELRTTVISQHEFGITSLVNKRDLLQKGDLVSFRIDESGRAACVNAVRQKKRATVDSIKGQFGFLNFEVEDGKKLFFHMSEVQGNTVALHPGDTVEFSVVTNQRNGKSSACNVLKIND", "experiment": "fluorescence polarization"}, "Unr CSD789 N977A": {"molecular_target": "T4, Unr CSD789 N977A (Drosophila, UniProt B7Z0E2 756-990, N977A)", "T4 sequence": "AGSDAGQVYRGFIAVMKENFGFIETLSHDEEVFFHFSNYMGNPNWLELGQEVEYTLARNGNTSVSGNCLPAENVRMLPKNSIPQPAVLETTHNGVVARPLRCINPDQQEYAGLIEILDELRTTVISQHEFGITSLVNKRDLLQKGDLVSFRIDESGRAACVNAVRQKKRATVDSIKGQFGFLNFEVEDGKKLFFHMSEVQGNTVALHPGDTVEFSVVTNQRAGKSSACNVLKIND", "experiment": "fluorescence polarization"}, "Unr CSD789 wild type [2]": {"molecular_target": "T1, Unr CSD789 wild type", "experiment": "fluorescence polarization"}, "Unr CSD789 R856A": {"molecular_target": "T5, Unr CSD789 R856A (Drosophila, UniProt B7Z0E2 756-990, R856A)", "T5 sequence": "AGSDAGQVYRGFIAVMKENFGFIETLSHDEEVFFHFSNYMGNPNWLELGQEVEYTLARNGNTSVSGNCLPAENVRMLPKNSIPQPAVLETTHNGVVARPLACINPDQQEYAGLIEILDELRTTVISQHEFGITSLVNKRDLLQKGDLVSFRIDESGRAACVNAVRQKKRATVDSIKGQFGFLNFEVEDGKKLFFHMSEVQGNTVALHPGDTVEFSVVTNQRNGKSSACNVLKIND", "experiment": "fluorescence polarization"}, "Unr CSD789 P860A": {"molecular_target": "T6, Unr CSD789 P860A (Drosophila, UniProt B7Z0E2 756-990, P860A)", "T6 sequence": "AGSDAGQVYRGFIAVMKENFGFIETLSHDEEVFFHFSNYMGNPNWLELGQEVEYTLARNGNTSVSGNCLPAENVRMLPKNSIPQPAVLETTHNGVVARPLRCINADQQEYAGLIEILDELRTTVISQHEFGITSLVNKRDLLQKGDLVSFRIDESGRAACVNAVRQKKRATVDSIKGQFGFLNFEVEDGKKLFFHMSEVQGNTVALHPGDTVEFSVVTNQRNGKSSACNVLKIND", "experiment": "fluorescence polarization"}, "Unr CSD789 Q975A": {"molecular_target": "T7, Unr CSD789 Q975A (Drosophila, UniProt B7Z0E2 756-990, Q975A)", "T7 sequence": "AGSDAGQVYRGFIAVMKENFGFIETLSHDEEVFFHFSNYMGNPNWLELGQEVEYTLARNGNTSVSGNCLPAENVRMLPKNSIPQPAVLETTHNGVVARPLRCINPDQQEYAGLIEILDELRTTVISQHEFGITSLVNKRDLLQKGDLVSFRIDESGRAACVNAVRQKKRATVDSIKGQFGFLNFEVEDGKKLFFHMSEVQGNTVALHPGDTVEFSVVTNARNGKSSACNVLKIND", "experiment": "fluorescence polarization"}, "Unr CSD789 K979A": {"molecular_target": "T8, Unr CSD789 K979A (Drosophila, UniProt B7Z0E2 756-990, K979A)", "T8 sequence": "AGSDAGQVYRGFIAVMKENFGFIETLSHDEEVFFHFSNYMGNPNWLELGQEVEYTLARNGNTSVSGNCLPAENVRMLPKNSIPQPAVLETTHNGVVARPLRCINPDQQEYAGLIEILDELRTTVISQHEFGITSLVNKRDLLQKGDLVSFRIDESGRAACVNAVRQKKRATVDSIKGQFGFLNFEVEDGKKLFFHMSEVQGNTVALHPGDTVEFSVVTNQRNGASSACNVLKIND", "experiment": "fluorescence polarization"}, "[3]": {"molecular_target": "T9, Unr CSD789 E786A/R856A/P860A (ERPmut) (Drosophila, UniProt B7Z0E2 756-990, E786A;R856A;P860A)", "T9 sequence": "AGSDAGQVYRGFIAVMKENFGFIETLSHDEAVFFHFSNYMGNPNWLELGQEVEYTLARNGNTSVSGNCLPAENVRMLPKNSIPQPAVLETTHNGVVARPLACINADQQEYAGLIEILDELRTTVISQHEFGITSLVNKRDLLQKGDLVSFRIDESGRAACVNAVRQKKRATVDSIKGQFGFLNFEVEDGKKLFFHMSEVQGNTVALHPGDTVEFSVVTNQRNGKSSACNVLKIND", "experiment": "fluorescence polarization"}, "Unr CSD789 R976A": {"molecular_target": "T10, Unr CSD789 R976A (Drosophila, UniProt B7Z0E2 756-990, R976A)", "T10 sequence": "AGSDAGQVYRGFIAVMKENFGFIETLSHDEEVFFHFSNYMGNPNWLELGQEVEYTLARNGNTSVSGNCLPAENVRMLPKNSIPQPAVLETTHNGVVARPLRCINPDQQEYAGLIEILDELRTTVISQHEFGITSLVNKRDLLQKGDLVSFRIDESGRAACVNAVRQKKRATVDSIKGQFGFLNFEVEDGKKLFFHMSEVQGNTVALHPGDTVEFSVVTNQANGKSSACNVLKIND", "experiment": "fluorescence polarization"}, "pAbp RRM3": {"molecular_target": "pAbp RRM3 (Drosophila, UniProt P21187 176-263)", "sequence (P21187 176-263)": "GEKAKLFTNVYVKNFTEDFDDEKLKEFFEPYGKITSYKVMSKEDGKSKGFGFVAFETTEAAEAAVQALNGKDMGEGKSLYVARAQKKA", "experiment": "NMR titration"}, "Unr CSD789 wild type [4]": {"molecular_target": "T1, Unr CSD789 wild type", "experiment": "NMR titration"}}, "data": [{"binder": "AAAAAAA (ssRNA)", "note": "[A7-mer]", "values": [{"measurement": "Kd", "setting": "Unr CSD789 wild type [1]", "result": "17.7 ± 5.2", "unit": "µM"}]}, {"binder": "AAAAAAAAA (ssRNA)", "note": "[A9-mer]", "values": [{"measurement": "Kd", "setting": "Unr CSD789 wild type [1]", "result": "4.3 ± 1.3", "unit": "µM"}]}, {"binder": "AAAAAAAAAAAAAAA (ssRNA)", "note": "[A15-mer, 3' labelled]", "values": [{"measurement": "Kd", "setting": "Unr CSD789 Q868A", "result": "61 ± 12.1", "unit": "µM"}, {"measurement": "Kd", "setting": "Unr CSD789 E786A", "result": "50.1 ± 6.4", "unit": "µM"}, {"measurement": "Kd", "setting": "Unr CSD789 N977A", "result": "71.2 ± 12.5", "unit": "µM"}, {"measurement": "Kd", "setting": "Unr CSD789 wild type [2]", "result": "21.1 ± 3.6", "unit": "µM"}, {"measurement": "Kd", "setting": "Unr CSD789 R856A", "result": "72.4 ± 11", "unit": "µM"}, {"measurement": "Kd", "setting": "Unr CSD789 P860A", "result": "67.2 ± 7.9", "unit": "µM"}, {"measurement": "Kd", "setting": "Unr CSD789 Q975A", "result": "38.2 ± 8.7", "unit": "µM"}, {"measurement": "Kd", "setting": "Unr CSD789 K979A", "result": "160 ± 57.6", "unit": "µM"}, {"measurement": "Kd", "setting": "[3]", "result": "~94.7", "unit": "µM"}, {"measurement": "Kd", "setting": "Unr CSD789 R976A", "result": "161 ± 51.2", "unit": "µM"}]}, {"binder": "AAAAAAAA (ssRNA)", "note": "[A8-mer]", "values": [{"measurement": "Kd", "setting": "Unr CSD789 wild type [1]", "result": "4.4 ± 2.7", "unit": "µM"}, {"measurement": "binding result", "setting": "pAbp RRM3", "result": "binds"}]}, {"binder": "AAAAA (ssRNA)", "note": "[A5-mer]", "values": [{"measurement": "Kd", "setting": "Unr CSD789 wild type [4]", "result": "127 ± 16.6", "unit": "µM"}, {"measurement": "binding result", "setting": "pAbp RRM3", "result": "binds"}]}, {"binder": "AAAAAAAAAAAAAAA (ssRNA)", "note": "[A15-mer]", "values": [{"measurement": "Kd", "setting": "Unr CSD789 wild type [1]", "result": "4.8 ± 0.8", "unit": "µM"}, {"measurement": "Kd", "setting": "Unr CSD789 wild type [4]", "result": "8 ± 1.5", "unit": "µM"}]}]}
